Legend:
[1] = substrate: CCCCC/C=C\C\C=C/C=C/C=C/[C@@H](SC[C@@H](NC(=O)CC[C@H](N)C(=O)O)C(=O)NCC(=O)O)[C@@H](O)CCCC(=O)O; test: cells, lysate or membranes named
[2] = substrate: Cc1ccc(N(CC(=O)O)CC(=O)O)c(OCCOc2cc(-c3c4cc(Cl)c(=O)cc-4oc4cc(O)c(Cl)cc34)ccc2N(CC(=O)O)CC(=O)O)c1; test: TP_TRANSPORTER: uptake in membrane vesicle from MRP1-expressing HeLa cells; assay type: functional, cell membranes

Protein	Km [1] [µM]	Km [2] [µM]
Multidrug resistance-associated protein 1 (Mus musculus) (protein) MALRSFCSADGSDPLWDWNVTWHTSNPDFTKCFQNTVLTWVPCFYLWSCFPLYFFYLSRHDRGYIQMTHLNKTKTALGFFLWIICWADLFYSFWERSQGVLRAPVLLVSPTLLGITMLLATFLIQLERRKGVQSSGIMLTFWLVALLCALAILRSKIISALKKDAHVDVFRDSTFYLYFTLVLVQLVLSCFSDCSPLFSETVHDRNPCPESSASFLSRITFWWITGMMVHGYRQPLESSDLWSLNKEDTSEEVVPVLVNNWKKECDKSRKQPVRIVYAPPKDPSKPKGSSQLDVNEEVEALIVKSPHKDREPSLFKVLYKTFGPYFLMSFLYKALHDLMMFAGPKILELIINFVNDREAPDWQGYFYTALLFVSACLQTLALHQYFHICFVSGMRIKTAVVGAVYRKALLITNAARKSSTVGEIVNLMSVDAQRFMDLATYINMIWSAPLQVILALYFLWLSLGPSVLAGVAVMILMVPLNAVMAMKTKTYQVAHMKSKDNRIKLMNEILNGIKVLKLYAWELAFQDKVMSIRQEELKVLKKSAYLAAVGTFTWVCTPFLVALSTFAVFVTVDERNILDAKKAFVSLALFNILRFPLNILPMVISSIVQASVSLKRLRIFLSHEELEPDSIERRSIKSGEGNSITVKNATFTWARGEPPTLNGITFSIPEGALVAVVGQVGCGKSSLLSALLAEMDKVEGHVTLKGSVAYVPQQAWIQNDSLRENILFGHPLQENYYKAVMEACALLPDLEILPSGDRTEIGEKGVNLSGGQKQRVSLARAVYSNSDIYLFDDPLSAVDAHVGKHIFEKVVGPMGLLKNKTRILVTHGISYLPQVDVIIVMSGGKISEMGSYQELLDRDGAFAEFLRTYANAEQDLASEDDSVSGSGKESKPVENGMLVTDTVGKHLQRHLSNSSSHSGDTSQQHSSIAELQKAGAKEETWKLMEADKAQTGQVQLSVYWNYMKAIGLFITFLSIFLFLCNHVSALASNYWLSLWTDDPPVVNGTQANRNFRLSVYGALGILQGAAIFGYSMAVSIGGIFASRRLHLDLLYNVLRSPMSFFERTPSGNLVNRFSKELDTVDSMIPQVIKMFMGSLFSVIGAVIIILLATPIAAVIIPPLGLVYFFVQRFYVASSRQLKRLESVSRSPVYSHFNETLLGVSVIRAFEEQERFIHQSDLKVDENQKAYYPSIVANRWLAVRLECVGNCIVLFAALFAVISRHSLSAGLVGLSVSYSLQITAYLNWLVRMSSEMETNIVAVERLKEYSETEKEAPWQIQETAPPSTWPHSGRVEFRDYCLRYREDLDLVLKHINVTIEGGEKVGIVGRTGAGKSSLTLGLFRINESAEGEIIIDGVNIAKIGLHNLRFKITIIPQDPVLFSGSLRMNLDPFSQYSDEEVWMALELAHLKGFVSALPDKLNHECAEGGENLSVGQRQLVCLARALLRKTKILVLDEATAAVDLETDNLIQSTIRTQFEDCTVLTIAHRLNTIMDYTRVIVLDKGEVRECGAPSELLQQRGIFYSMAKDAGLV	0.1	
Multidrug resistance-associated protein 1 (Homo sapiens) (protein) MALRGFCSADGSDPLWDWNVTWNTSNPDFTKCFQNTVLVWVPCFYLWACFPFYFLYLSRHDRGYIQMTPLNKTKTALGFLLWIVCWADLFYSFWERSRGIFLAPVFLVSPTLLGITMLLATFLIQLERRKGVQSSGIMLTFWLVALVCALAILRSKIMTALKEDAQVDLFRDITFYVYFSLLLIQLVLSCFSDRSPLFSETIHDPNPCPESSASFLSRITFWWITGLIVRGYRQPLEGSDLWSLNKEDTSEQVVPVLVKNWKKECAKTRKQPVKVVYSSKDPAQPKESSKVDANEEVEALIVKSPQKEWNPSLFKVLYKTFGPYFLMSFFFKAIHDLMMFSGPQILKLLIKFVNDTKAPDWQGYFYTVLLFVTACLQTLVLHQYFHICFVSGMRIKTAVIGAVYRKALVITNSARKSSTVGEIVNLMSVDAQRFMDLATYINMIWSAPLQVILALYLLWLNLGPSVLAGVAVMVLMVPVNAVMAMKTKTYQVAHMKSKDNRIKLMNEILNGIKVLKLYAWELAFKDKVLAIRQEELKVLKKSAYLSAVGTFTWVCTPFLVALCTFAVYVTIDENNILDAQTAFVSLALFNILRFPLNILPMVISSIVQASVSLKRLRIFLSHEELEPDSIERRPVKDGGGTNSITVRNATFTWARSDPPTLNGITFSIPEGALVAVVGQVGCGKSSLLSALLAEMDKVEGHVAIKGSVAYVPQQAWIQNDSLRENILFGCQLEEPYYRSVIQACALLPDLEILPSGDRTEIGEKGVNLSGGQKQRVSLARAVYSNADIYLFDDPLSAVDAHVGKHIFENVIGPKGMLKNKTRILVTHSMSYLPQVDVIIVMSGGKISEMGSYQELLARDGAFAEFLRTYASTEQEQDAEENGVTGVSGPGKEAKQMENGMLVTDSAGKQLQRQLSSSSSYSGDISRHHNSTAELQKAEAKKEETWKLMEADKAQTGQVKLSVYWDYMKAIGLFISFLSIFLFMCNHVSALASNYWLSLWTDDPIVNGTQEHTKVRLSVYGALGISQGIAVFGYSMAVSIGGILASRCLHVDLLHSILRSPMSFFERTPSGNLVNRFSKELDTVDSMIPEVIKMFMGSLFNVIGACIVILLATPIAAIIIPPLGLIYFFVQRFYVASSRQLKRLESVSRSPVYSHFNETLLGVSVIRAFEEQERFIHQSDLKVDENQKAYYPSIVANRWLAVRLECVGNCIVLFAALFAVISRHSLSAGLVGLSVSYSLQVTTYLNWLVRMSSEMETNIVAVERLKEYSETEKEAPWQIQETAPPSSWPQVGRVEFRNYCLRYREDLDFVLRHINVTINGGEKVGIVGRTGAGKSSLTLGLFRINESAEGEIIIDGINIAKIGLHDLRFKITIIPQDPVLFSGSLRMNLDPFSQYSDEEVWTSLELAHLKDFVSALPDKLDHECAEGGENLSVGQRQLVCLARALLRKTKILVLDEATAAVDLETDDLIQSTIRTQFEDCTVLTIAHRLNTIMDYTRVIVLDKGEIQEYGAPSDLLQQRGLFYSMAKDAGLV		12
